Assay results taken from paper PMC4055269 (Molecular Biology of the Cell, 2014).

Biological target: the molecule itself
Experiment: SEC-MALS

B1: Drp1 C505A (enzyme, human, UniProt O00429-4 1-699, looked up)
chain: MEALIPVINKLQDVFNTVGADIIQLPQIVVVGTQSSGKSSVLESLVGRDLLPRGTGIVTRRPLILQLVHVSQEDKRKTTGEENGVEAEEWGKFLHTKNKLYTDFDEIRQEIENETERISGNNKGVSPEPIHLKIFSPNVVNLTLVDLPGMTKVPVGDQPKDIELQIRELILRFISNPNSIILAVTAANTDMATSEALKISREVDPDGRRTLAVITKLDLMDAGTDAMDVLMGRVIPVKLGIIGVVNRSQLDINNKKSVTDSIRDEYAFLQKKYPSLANRNGTKYLARTLNRLLMHHIRDCLPELKTRINVLAAQYQSLLNSYGEPVDDKSATLLQLITKFATEYCNTIEGTAKYIETSELCGGARICYIFHETFGRTLESVDPLGGLNTIDILTAIRNATGPRPALFVPEVSFELLVKRQIKRLEEPSLRCVELVHEEMQRIIQHCSNYSTQELLRFPKLHDAIVEVVTCLLRKRLPVTNEMVHNLVAIELAYINTKHPDFADAAGLMNNNIEEQRRNRLARELPSAVSRDKVASGGGGVGDGVQEPTTGNWRGMLKTSKAEELLAEEKSKPIPIMPASPQKGHAVNLLDVPVPVARKLSAREQRDCEVIERLIKSYFLIVRKNIQDSVPKAVMHFLVNHVKDTLQSELVGQLYKSSLLDDLLTESEDMAQRRKEAADMLKALQGASQIIAEIRETHLW
B1 was tested. Which “stoichiometry N” value did it give?
Its value is 2.
